Laboratory results from patent US20210301011A1, “COMPOSITION FOR PROPHYLAXIS OR TREATMENT OF IL-8 RELATED DISEASES” (CHUGAI SEIYAKU KABUSHIKI KAISHA, priority 2016, published 2021).
“Also recorded” adds a separate entry of the source.

How the values were obtained:
Type in all cases: in vivo, cynomolgus monkeys
endometriosis lesions = system: endometriosis lesions
Text: Female cynomolgus monkeys of 8 to 14 years of age with regular sexual cycle (provided by the Tsukuba Primate Research Center at the National Institutes of Biomedical Innovation, Health and Nutrition) were laparotomized under anesthesia during the period corresponding to the luteal phase. The uterine corpus was removed by dissecting in a V shape. Then, the uterine corpus was cut into 5 to 10 mm cubes while leaving the smooth muscle layer of the uterus, and one and two pieces were transplanted onto the right abdominal wall and left abdominal wall (cranial and caudal sides), respectively, in such a manner that the endometrium part is in contact with the peritoneum by suturing with an absorbable suture and formed the transplant. After excision, the uterus was sutured with absorbable suture. Then, the remaining endometrial tissues were finely cut and suspended in 5 ml of 2 ng/ml Hepatocyte Growth Factor solution (R&D systems), and this was seeded in the peritoneal cavity for transplantation, followed by closure of the abdomen. Anesthesia was performed using balanced anesthesia of ketamine/xylazine (mixed at an adequate ratio of about 2:1); however, anesthesia was maintained with isoflurane depending on the maintenance period of anesthesia. The body temperature was maintained and controlled during surgery using a heating pad and the condition was monitored electrocardiographically. The antagonist Antisedan (at roughly the same amount as that of xylazine) and antibiotic cephradine were administered at the time of awakening after surgery. The pain reliever Zalban was administered for two days after surgery, and the monkeys were observed regularly every day to confirm the absence of post-surgical abnormalities. In laparoscopic observation, anesthesia and post-surgical monitoring were also performed in the same way.
Laparoscopic observation was carried out four months, nine months (3 months after administration), and 12 months (6 months after administration) following the surgical induction of endometriosis described above, and the pathological conditions of endometriosis were assessed as follows.
The abdomen was incised in the median line under anesthesia, and laparoscopic observation was performed by inserting a trocar and then introducing a laparoscope. The laparoscope was connected to a video system (KARL STORZ) and a monitor. The monitor was used for intraperitoneal observation, and the video system was used for recording. Then, the peritoneal cavity was filled with carbon dioxide gas using Intra-abdominal Insufflation Unit (OLYMPUS) to expand the abdomen, and graduated bars and forceps were inserted from the ventral portion. The size of the lesion was measured using the graduated bar or graduated forceps.
The sizes (width, height, and depth) of nodular lesions formed by suturing the endometrial tissues were measured and the volumes were calculated based on: width (mm)×height (mm)×depth (mm). The lesions and adhesion formed by seeding endometrial tissues after fine cutting were assessed for the site, area, and depth of adhesion and the size of lesion by laparoscopic observation based on modified r-AFS score modified for monkeys from the r-AFS score for clinical use.
1. The item on adhesion to the vesicouterine pouch was added, because in the monkey model, the frequency of adhesion to the urinary bladder is higher than in humans. The method for assessing adhesion to the urinary bladder was the same scoring as that used for adhesion to the Douglas' pouch. 2. Since monkey's body and organ sizes are smaller than those of humans, the criteria of lesion size scoring were altered to: <3 mm, 3-10 mm, and >10 mm
The grouping was performed in two separate times. After randomization based on the mean volume of nodular lesions and the number of measurable lesions in each individual, eventually, six individuals were assigned to vehicle group and seven individuals were assigned to the antibody H1009/L395-F1974m-administered group. […]

post-surgical adhesion = assay: Adhesion after surgery (area surrounding the incision site in the abdominal wall) in endometriosis monkey models; conditions: 10 mg/kg; before vs six months after initiation of administration
Description: Specifically, adhesion to the area surrounding the incision site on the abdominal wall was compared before and after administration and evaluated by five evaluators on a three-point scale: (1) Improved, (2) Stable, and (3) Progressed. Ratings with a consensus among three or more of the five evaluators were adopted; otherwise (2) Stable was used. Evaluations were carried out on six monkeys in the vehicle group as well as seven monkeys in the antibody […]/[…]-[…] administration group. […] The monkey with “Progressed” was an individual in which the blood concentration of antibody […]/[…]-[…] had decreased due to anti-antibody production.

adenomyosis lesions = assay: Adenomyosis lesions in surgically-induced endometriosis monkey models; conditions: one case per group, compared to vehicle group
Text: After the final laparoscopic observation six months after the start of antibody administration in surgically-induced endometriosis monkey models, the uteri collected during autopsy were fixed with 10% neutral buffered formalin and HE-stained for observation. Endometrial tissues analogous to those of adenomyosis were strongly seen in the uterus in one case of the vehicle group as well as in one case of the antibody administration group. […] Thus, the monkeys were considered as being a human adenomyosis complication model, and the endometrial tissues in the myometria of these single cases were compared.

B1: H1009/L395-F1974m: H1009-F1974m (SEQ ID NO:36) heavy chain, L395-kOMT light chain; the anti-IL-8 antibody of Table 29 (antibody)
heavy: QVQLVESGGGLVQPGGSLRLSCAASGFTFSDYYLSWVRQAPGKGLEWVGLIRNKDNYHTPEYSASVKGRFTISRDDSKNSLYLTMSDLKTEDTAVYYCARENHRYDVELAYWGQGTLVTVSSASTKGPSVFPLAPSSKSTSGGTAALGCLVKDYFPEPVTVSWNSGALTSGVHTFPAVLQSSGLYSLSSVVTVPSSSLGTQTYICNVNHKPSNTKVDKKVEPKSCDKTHTCPPCPAPELRRGPSVFLFPPKPKDTLMISRTPEVTCVVVDVSHEDPEVKFNWYVDGVEVHNAKTKPREEQYNSTYRVVSVLTVLHQDWLNGKEYKCKVSNKGLPSSIEKTISKAKGQPREPQVYTLPPSREEMTKNQVSLTCLVKGFYPSDIAVEWESNGQPENNYKTTPPVLDSDGSFFLYSKLTVDKSRWQQGNVFSCSVLHEALHAHTTRKELSLSP
light: DIQMTQSPSSLSASVGDRVTITCRASEIIYSYLAWYQQKPGKAPKLLIYKAKTHADGVPSRFSGSGSGTDFTFTISSLQPEDIATYYCKHHFGFPRTFGQGTKVEIKRTVAAPSVFIFPPSDEQLKSGTASVVCLLNNFYPREAKVQWKVDNALQSGNSQESVTEQDSKDSTYSLSSTLTLSKADYEKHKVYACEVTHQGLSSPVTKSFNRGEC
frequency of nodular lesions of type A: proliferative, ≥500 mm3 (endometriosis lesions; 10 mg/kg i.v. q4w, 6 months): 0% | frequency of nodular lesions of type B: proliferative, <500 mm^3 (endometriosis lesions; 10 mg/kg i.v. q4w, 6 months): 8% | frequency of nodular lesions of type C: no change (endometriosis lesions; 10 mg/kg i.v. q4w, 6 months): 33% | frequency of nodular lesions of type D: decreased (endometriosis lesions; 10 mg/kg i.v. q4w, 6 months): 58% | nodular lesions of type A: proliferative, ≥500 mm3 (lesions/total lesions) (endometriosis lesions; 10 mg/kg i.v. q4w, 6 months): (0/12) | nodular lesions of type B: proliferative, <500 mm^3 (lesions/total lesions) (endometriosis lesions; 10 mg/kg i.v. q4w, 6 months): (1/12) | nodular lesions of type C: no change (lesions/total lesions) (endometriosis lesions; 10 mg/kg i.v. q4w, 6 months): (4/12) | nodular lesions of type D: decreased (lesions/total lesions) (endometriosis lesions; 10 mg/kg i.v. q4w, 6 months): (7/12) | change of size r-AFS score (endometriosis lesions; after vs before administration, compared to vehicle group): tended to decrease | change of total r-AFS score (endometriosis lesions; after vs before administration, compared to vehicle group, p=0.0070): clearly decreased as compared to the vehicle group | change of adhesion score (adhesion r-AFS score) (endometriosis lesions; after vs before administration, compared to vehicle group, p=0.0096): clearly decreased as compared to the vehicle group | frequency of deep lesions (endometriosis gland ducts invaded up to the muscle layer of abdominal wall) (endometriosis lesions; anti-antibody-positive individuals excluded, vehicle 5/18 lesions): 1/11 | hemosiderin observed (lesions/total) (endometriosis lesions; antibody administration group, vehicle 9/16): 4/17 | hemosiderin observed (percent of lesions) (endometriosis lesions; antibody administration group, vehicle 56%): 24% | total modified r-AFS score before and after administration (endometriosis lesions; scores recorded by the practitioner during laparoscopic surgery, P=0.875): the score did not change | post-surgical adhesion: Improved (monkeys/total) (post-surgical adhesion): 6/7 | post-surgical adhesion: Progressed (monkeys/total) (post-surgical adhesion): 1/7 | post-surgical adhesion: Stable (monkeys/total) (post-surgical adhesion): 0/7 | histology of adenomyosis lesions (HE staining) (adenomyosis lesions): atrophy of endometrial epithelia in the adenomyosis lesions as well as reduction and atrophy of stromal cells were observed; also recorded: Atrophy of endometrial epithelium, and atrophy and reduction of stromal cells were observed
